In paper PMC11321319, “Shy is a proteobacterial steroid hydratase which catalyzes steroid side chain degradation without requiring a catalytically inert partner domain” (The Journal of Biological Chemistry, 2024):

Experiments:
[1] = test system: T1, C/C=C/C(=O)SCCNC(=O)CCNC(=O)[C@H](O)C(C)(C)COP(=O)(O)OP(=O)(O)OC[C@H]1O[C@@H](n2cnc3c(N)ncnc32)[C@H](O)[C@@H]1OP(=O)(O)O; assay: purified protein; assay type: biochemical, Comamonas testosteroni; conditions: 100 mM sodium Hepes pH 7.5, 25 °C
T1 construct: C-terminal MaoC domain only (DUF35 removed), His-tagged (pET28a NdeI/HindIII), from E. coli BL21 LOBSTR; homodimer

[2] = test system: T2, C[C@H](/C=C/C(=O)SCCNC(=O)CCNC(=O)[C@H](O)C(C)(C)COP(=O)(O)OP(=O)(O)OC[C@H]1O[C@@H](n2cnc3c(N)ncnc32)[C@H](O)[C@@H]1OP(=O)(O)O)[C@H]1CC[C@H]2[C@@H]3[C@H](O)C[C@@H]4C[C@H](O)CC[C@]4(C)[C@H]3C[C@H](O)[C@]12C; assay: purified protein; assay type: biochemical, Comamonas testosteroni; conditions: 100 mM sodium Hepes pH 7.5, 25 °C
T2 construct: C-terminal MaoC domain only (DUF35 removed), His-tagged (pET28a NdeI/HindIII), from E. coli BL21 LOBSTR; homodimer

[3] = molecular target: T3, N-terminal His-tagged Sal (side chain aldolase / steroid aldolase) from Comamonas testosteroni KF-1 (Comamonas testosteroni KF-1, UniProt B7X4S8 1-404); assay: SEC; analytical size-exclusion chromatography, Superdex 200, 20 mM sodium Hepes pH 7.5, 0.15 M NaCl; native molecular weight from a standard curve; conditions: both partners purified
T3 construct: gene amplified from genomic DNA; theoretical molecular weight of tagged Sal 46.08 kDa; Cloned into pMCSG7 by ligation independent cloning; source: E. coli BL21 LOBSTR (pMCSG7), coexpressed with untagged Shy or its truncated forms; in cell extract, then purified on Ni-NTA; not shown: His tag, N-terminal, kept
T3 sequence (looked up): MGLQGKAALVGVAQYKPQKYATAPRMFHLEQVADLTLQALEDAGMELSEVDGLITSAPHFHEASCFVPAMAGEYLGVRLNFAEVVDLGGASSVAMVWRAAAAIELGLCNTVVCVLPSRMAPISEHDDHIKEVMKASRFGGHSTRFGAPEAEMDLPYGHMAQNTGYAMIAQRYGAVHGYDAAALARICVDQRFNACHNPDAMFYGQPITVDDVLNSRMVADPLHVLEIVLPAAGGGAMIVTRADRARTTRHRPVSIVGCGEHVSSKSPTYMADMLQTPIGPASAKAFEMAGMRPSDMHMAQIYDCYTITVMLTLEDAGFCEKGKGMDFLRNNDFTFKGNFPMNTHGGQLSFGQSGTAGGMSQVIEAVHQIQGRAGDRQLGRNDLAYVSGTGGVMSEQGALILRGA

[4] = substrate: C[C@H](/C=C/C(=O)SCCNC(=O)CCNC(=O)[C@H](O)C(C)(C)COP(=O)(O)OP(=O)(O)OC[C@H]1O[C@@H](n2cnc3c(N)ncnc32)[C@H](O)[C@@H]1OP(=O)(O)O)[C@H]1CC[C@H]2[C@@H]3[C@H](O)C[C@@H]4C[C@H](O)CC[C@]4(C)[C@H]3C[C@H](O)[C@]12C; assay: purified protein; assay type: biochemical, Comamonas testosteroni; conditions: 100 mM sodium Hepes pH 7.5, 25 °C
[5] = substrate: C[C@H](/C=C/C(=O)SCCNC(=O)CCNC(=O)[C@H](O)C(C)(C)COP(=O)(O)OP(=O)(O)OC[C@H]1O[C@@H](n2cnc3c(N)ncnc32)[C@H](O)[C@@H]1OP(=O)(O)O)[C@H]1CC[C@H]2[C@@H]3CC=C4C[C@@H](O)CC[C@]4(C)[C@H]3CC[C@]12C; assay: purified protein; assay type: biochemical, Comamonas testosteroni; conditions: 100 mM sodium Hepes pH 7.5, 25 °C
[6] = substrate: C/C=C/C(=O)SCCNC(=O)CCNC(=O)[C@H](O)C(C)(C)COP(=O)(O)OP(=O)(O)OC[C@H]1O[C@@H](n2cnc3c(N)ncnc32)[C@H](O)[C@@H]1OP(=O)(O)O; assay: purified protein; assay type: biochemical, Comamonas testosteroni; conditions: 100 mM sodium Hepes pH 7.5, 25 °C
[7] = substrate: C[C@H](C(O)CC(=O)SCCNC(=O)CCNC(=O)[C@H](O)C(C)(C)COP(=O)(O)OP(=O)(O)OC[C@H]1O[C@@H](n2cnc3c(N)ncnc32)[C@H](O)[C@@H]1OP(=O)(O)O)[C@H]1CC[C@H]2[C@@H]3[C@H](O)C[C@@H]4C[C@H](O)CC[C@]4(C)[C@H]3C[C@H](O)[C@]12C; assay: purified protein; assay type: biochemical, Comamonas testosteroni; conditions: 100 mM sodium Hepes pH 7.5, 25 °C, 1 mM NAD+, 7 nM Sad (coupling enzyme)
[8] = molecular target: the molecule itself; assay: SEC; analytical size-exclusion chromatography, Superdex 200, 20 mM sodium Hepes pH 7.5, 0.15 M NaCl; native molecular weight from a standard curve

In the case of “ShyMaoC (Comamonas testosteroni KF-1; I309F)”, the Km [1] is reported as 65.0 ± 3.25 µM, the kcat [1] is reported as 0.00555 ± 0.000129 s⁻¹ and the kcat/Km [1] is reported as 85.4 ± 4.71 M⁻¹ s⁻¹. It also gave a Km [2] of 12.3 ± 1.05 µM, a kcat [2] of 67.2 ± 2.77 s⁻¹ and a kcat/Km [2] of 5.46e+06 ± 518000 M⁻¹ s⁻¹.

B1: Untagged Shy (side chain hydratase) from Comamonas testosteroni KF-1 (enzyme, UniProt B7X4S7 1-312, looked up)
chain: MAWNKPLPHPTEISAPYWEGLKAHEVRIQQCDRGHSLFFPRTHCPTCGSRSLKWSKVSGEGTLYSFTVARIPTMPEFTDEMPQALAVIELREGVRINTTMVGVAPEALKVGMEVRPVFDERPGEVTLLRFTAHAGSHPSVIKADAESEVAVVEQSVAAKRRISVKDIEAMKSLVSEEYSPWSNEFTVSQEVIDEFARLSGDDYWIHTDPVQAREKSPFGTTIAHGALVQVLASQLRIPLDYEVVDFNNMVNYGSDRLRFPTPVPSGCKIRARARIKAVEQVRSGVQATMELNIHVVGQDRPAVINDLVILYM
notes: N-terminal DUF35 domain and C-terminal MaoC domain; theoretical molecular weight 34.81 kDa; called 'the full protein' in the discussion; source: E. coli BL21 LOBSTR (pBTLactac, tagless), coexpressed with His-tagged Sal; in cell extract, then copurified on Ni-NTA
With B1 the “stoichiometry N” value [3] was 1 Shy per Sal (2:2 complex), the Km [4] was 6.19 ± 0.446 µM and the kcat [4] was 163 ± 1.5 s⁻¹. For the same molecule, the kcat/Km [4] was 2.64e+07 ± 1.91e+06 M⁻¹ s⁻¹.

B2: ShyMaoC (Comamonas testosteroni KF-1) (protein)
chain: ESEVAVVEQSVAAKRRISVKDIEAMKSLVSEEYSPWSNEFTVSQEVIDEFARLSGDDYWIHTDPVQAREKSPFGTTIAHGALVQVLASQLRIPLDYEVVDFNNMVNYGSDRLRFPTPVPSGCKIRARARIKAVEQVRSGVQATMELNIHVVGQDRPAVINDLVILYM
notes: C-terminal MaoC domain only (DUF35 removed), His-tagged (pET28a NdeI/HindIII), from E. coli BL21 LOBSTR; homodimer
Molecule B2 has a Km [5] of 6.71 ± 0.588 µM, a kcat [5] of 62.9 ± 2.32 s⁻¹ and a kcat/Km [5] of 9.37e+06 ± 890000 M⁻¹ s⁻¹. The Km [4] was 6.14 ± 0.524 µM, the kcat [4] was 211 ± 6.71 s⁻¹ and the kcat/Km [4] was 3.44e+07 ± 3.13e+06 M⁻¹ s⁻¹. The Km [6] was 63.6 ± 3.62 µM, the kcat [6] was 0.00412 ± 0.00011 s⁻¹ and the kcat/Km [6] was 64.8 ± 4.07 M⁻¹ s⁻¹.

B3: Shy-Sal (aldolase site in Sal) (Comamonas testosteroni KF-1) (protein)
chain: MGLQGKAALVGVAQYKPQKYATAPRMFHLEQVADLTLQALEDAGMELSEVDGLITSAPHFHEASCFVPAMAGEYLGVRLNFAEVVDLGGASSVAMVWRAAAAIELGLCNTVVCVLPSRMAPISEHDDHIKEVMKASRFGGHSTRFGAPEAEMDLPYGHMAQNTGYAMIAQRYGAVHGYDAAALARICVDQRFNACHNPDAMFYGQPITVDDVLNSRMVADPLHVLEIVLPAAGGGAMIVTRADRARTTRHRPVSIVGCGEHVSSKSPTYMADMLQTPIGPASAKAFEMAGMRPSDMHMAQIYDCYTITVMLTLEDAGFCEKGKGMDFLRNNDFTFKGNFPMNTHGGQLSFGQSGTAGGMSQVIEAVHQIQGRAGDRQLGRNDLAYVSGTGGVMSEQGALILRGA
notes: same complex as P1: N-terminally His-tagged Sal with untagged full-length Shy, from E. coli BL21 LOBSTR; 160 kDa heterotetramer; with Side chain hydratase Shy, bifunctional OB-fold (DUF35) / MaoC family dehydratase domain-containing protein
With B3 the Km [7] was 8.12 ± 0.477 µM, the kcat [7] was 37.6 ± 0.8 s⁻¹ and the kcat/Km [7] was 4.63e+06 ± 289000 M⁻¹ s⁻¹.

B4: His-tagged Shy_(MaoC), MaoC domain of Shy (domain or fragment, Comamonas testosteroni KF-1, UniProt B7X4S7 148-312, looked up)
chain: EVAVVEQSVAAKRRISVKDIEAMKSLVSEEYSPWSNEFTVSQEVIDEFARLSGDDYWIHTDPVQAREKSPFGTTIAHGALVQVLASQLRIPLDYEVVDFNNMVNYGSDRLRFPTPVPSGCKIRARARIKAVEQVRSGVQATMELNIHVVGQDRPAVINDLVILYM
notes: theoretical molecular weight of the tagged construct 20.5 kDa; Inserted into pET28a between NdeI and HindIII; source: E. coli BL21 LOBSTR (pET28a), purified (Ni-NTA)
B4 was tested, and the “stoichiometry N” value [8] was 2.
